Measurements reported in patent publication US20250195679A1 (SHANGHAI HUAOTA BIOPHARMACEUTICAL, published 2025).
Where two headings read alike, the source gives them in different places.

T1: CD73 on the surface of Calu6 cells (UniProt P21589 27-549)
T1 sequence (looked up): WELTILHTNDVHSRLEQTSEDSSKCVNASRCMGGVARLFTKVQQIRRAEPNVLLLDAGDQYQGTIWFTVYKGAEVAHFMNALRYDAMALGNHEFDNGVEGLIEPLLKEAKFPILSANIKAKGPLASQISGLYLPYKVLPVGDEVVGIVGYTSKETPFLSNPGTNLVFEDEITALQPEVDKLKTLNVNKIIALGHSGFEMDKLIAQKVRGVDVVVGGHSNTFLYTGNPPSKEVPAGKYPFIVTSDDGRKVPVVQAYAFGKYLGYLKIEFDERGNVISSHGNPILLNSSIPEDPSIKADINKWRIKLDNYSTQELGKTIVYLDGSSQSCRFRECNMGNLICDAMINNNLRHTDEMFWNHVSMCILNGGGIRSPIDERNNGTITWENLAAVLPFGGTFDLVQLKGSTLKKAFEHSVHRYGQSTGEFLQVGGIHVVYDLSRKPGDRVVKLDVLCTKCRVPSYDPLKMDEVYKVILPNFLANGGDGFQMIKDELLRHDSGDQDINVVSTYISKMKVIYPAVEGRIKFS

T2: human CD73 protein (ACRO Biosystems, Cat. No. CD3-H52H7) (human, UniProt P21589 27-547)
T2 sequence (looked up): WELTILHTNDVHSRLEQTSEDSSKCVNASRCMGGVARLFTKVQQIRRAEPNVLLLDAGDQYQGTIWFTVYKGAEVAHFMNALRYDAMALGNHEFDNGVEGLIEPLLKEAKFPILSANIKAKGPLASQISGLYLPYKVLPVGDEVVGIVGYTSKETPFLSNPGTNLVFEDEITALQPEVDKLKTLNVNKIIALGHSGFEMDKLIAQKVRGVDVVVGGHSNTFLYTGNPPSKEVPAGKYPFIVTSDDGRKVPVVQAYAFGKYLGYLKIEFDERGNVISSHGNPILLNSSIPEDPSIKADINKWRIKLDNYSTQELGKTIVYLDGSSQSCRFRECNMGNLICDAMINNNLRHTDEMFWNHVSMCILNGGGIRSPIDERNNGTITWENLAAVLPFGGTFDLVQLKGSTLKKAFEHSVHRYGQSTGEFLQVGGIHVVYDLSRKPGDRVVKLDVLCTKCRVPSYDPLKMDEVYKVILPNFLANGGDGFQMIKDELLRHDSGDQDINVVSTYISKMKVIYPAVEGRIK

T3: human CD73 expressed on CHOK1-huCD73-3F4 cells (human, UniProt P21589 27-549)
T3 construct: whole, on cells; also called cells expressing human CD73 (CHOK1-huCD73-3F4, Huabo Biopharm); CD73 antigen on the cell surface
T3 sequence (looked up): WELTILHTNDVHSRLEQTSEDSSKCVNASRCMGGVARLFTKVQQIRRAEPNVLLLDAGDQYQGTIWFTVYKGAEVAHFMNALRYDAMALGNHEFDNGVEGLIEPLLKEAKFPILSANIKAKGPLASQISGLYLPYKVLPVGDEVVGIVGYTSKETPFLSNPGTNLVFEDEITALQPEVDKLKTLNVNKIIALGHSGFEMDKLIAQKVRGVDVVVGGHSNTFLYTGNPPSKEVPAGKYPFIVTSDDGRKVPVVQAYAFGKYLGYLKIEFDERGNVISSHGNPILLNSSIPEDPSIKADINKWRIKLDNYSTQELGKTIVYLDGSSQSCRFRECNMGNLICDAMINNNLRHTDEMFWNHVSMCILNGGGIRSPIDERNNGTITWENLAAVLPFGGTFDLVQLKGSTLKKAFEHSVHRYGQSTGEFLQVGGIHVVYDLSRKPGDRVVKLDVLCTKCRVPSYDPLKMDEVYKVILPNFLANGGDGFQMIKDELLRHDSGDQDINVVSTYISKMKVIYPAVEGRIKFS

B1: 900698 antibody (antibody, V domains shown)
VH: QVQLVESGGGLVKPGGSLRLSCAASGFTFSKYAMSWIRQAPGKGLEWVAEISSGGGYINYADSVKGRFTISRDNAKNSLYLQMNSLRAEDTAVYYCARAIYYYGSSYNYYAMDYWGQGTTVTVSS
VL: DIQMTQSPSSLSASVGDRVTITCRASQDVGTAEAWYQQKPGKAPKLLIYWASTRHTGVPSRFSGSGSGTDFTLTISSLQPEDFATYYCQQYSSYPLTFGQGTKLEIK
notes: embodiments say they may derive from human IgG1 and human Ig kappa; It was detected with anti-human Fc and captured on protein A; also called 900698 naked antibody; naked antibody 900698
B2: CD73 antibody-MP2-VC-PAB-DMEDA-PEG-SN38 (antibody, V domains shown)
VH: QVQLVESGGGLVKPGGSLRLSCAASGFTFSKYAMSWIRQAPGKGLEWVAEISSGGGYINYADSVKGRFTISRDNAKNSLYLQMNSLRAEDTAVYYCARAIYYYGSSYNYYAMDYWGQGTTVTVSS
VL: DIQMTQSPSSLSASVGDRVTITCRASQDVGTAEAWYQQKPGKAPKLLIYWASTRHTGVPSRFSGSGSGTDFTLTISSLQPEDFATYYCQQYSSYPLTFGQGTKLEIK
modifications: SN-38 conjugated through MP2-VC-PAB-DMEDA-PEG linker by cysteine conjugation; DAR about 7.8 for the whole antibody; conjugated cysteines not named
notes: the constant regions that carry the conjugated cysteines are not; also called antibody-drug conjugate 2
B3: CD73 antibody-Mc-VC-PAB-DMEDA-PEG-SN38 (antibody, V domains shown)
VH: QVQLVESGGGLVKPGGSLRLSCAASGFTFSKYAMSWIRQAPGKGLEWVAEISSGGGYINYADSVKGRFTISRDNAKNSLYLQMNSLRAEDTAVYYCARAIYYYGSSYNYYAMDYWGQGTTVTVSS
VL: DIQMTQSPSSLSASVGDRVTITCRASQDVGTAEAWYQQKPGKAPKLLIYWASTRHTGVPSRFSGSGSGTDFTLTISSLQPEDFATYYCQQYSSYPLTFGQGTKLEIK
modifications: SN-38 conjugated through Mc-VC-PAB-DMEDA-PEG linker by cysteine conjugation; DAR about 7.8 for the whole antibody; conjugated cysteines not named
notes: the constant regions that carry the conjugated cysteines are not; also called antibody-drug conjugate 1
B4: BMS-986179 (antibody, human IgG1, kappa, L234A L235A, V domains shown)
VH: QVQLVESGGGVVQPGRSLRLSCAASGFTFSNYGMHWVRQAPGKGLEWVAVILYDGSNKYYPDSVKGRFTISRDNSKNTLYLQMNSLRAEDTAVYYCARGGSSWYPDSFDIWGQGTMVTVSS
VL: DIQMTQSPSSLSASVGDRVTITCRASQGISSWLAWYQQKPEKAPKSLIYAASSLQSGVPSRFSGSGSGTDFTLTISSLQPEDFATYYCQQYNSYPLTFGGGTKVEIKR
notes: also called CD73 positive control antibody BMS-986179
B5: 900725 antibody (antibody, V domains shown)
VH: QVQLVQSGAEVKKPGASVKLSCKASGYTFTSYWIHWVRQAPGQGLEWIGMIHPNSGSTYYNEKFKGRATLTVDKSTSTAYMELSSLRSEDTAVYYCARYYGSDYEWYFDVWGQGTTVTVSS
VL: DIQMTQSPSSMSASVGDRVTITCKASQNVRTAVVWYQQKPGKAPKALIYLASNRHTGVPDRFSGSGSGTDFTLTISSLQPEDFATYFCLQHWNYPYTFGQGTKLEIK
notes: It was detected with anti-human IgG Fc; also called anti-CD73 antibody 900725

Key:
[1] = target: T1, CD73 on the surface of Calu6 cells; experiment: cell-based or functional assay
[2] = target: T1, CD73 on the surface of Calu6 cells; experiment: cell-based or functional assay; remark: listed apart in the source
[3] = target: T2, human CD73 protein (ACRO Biosystems, …); experiment: cell-based or functional assay
[4] = target: T2, human CD73 protein (ACRO Biosystems, …); experiment: SPR (Biacore T200), antibody captured on protein A chip, CD73 as analyte, 1:1 model
Procedure: (§1) The binding kinetics of the antibody-drug conjugate 1 and the antibody-drug conjugate 2 prepared in Example 1 and the 900698 naked antibody with a human CD73 protein (manufacturer: ACRO Biosystems, Cat. No. CD3-H52H7) and a monkey CD73 protein (manufacturer: Novoprotein, Cat. No. CI21) were assayed using Biacore (GE, model: T200), with an assay buffer of HBS-EP+ (pH 7.4) and a protein A chip (manufacturer: GE, Cat. No. 29-1275-56).
(§2) The temperature for the sample compartment and the flow path was set to 25° C. The protein A chip captured each antigen-binding protein as a ligand, fixing about 100 RU. The human CD73 protein was diluted with the assay buffer to a series of concentrations of 50 nM, 25 nM, 12.5 nM, 6.25 nM, 3.12 nM, and 1.57 nM, serving as analytes, and the assay buffer was used as a 0 concentration control. At a flow rate of 30 μL/min, association was conducted for 120 s, and dissociation was conducted for 600 s. Glycine (10 mM, pH 1.5) was used for regeneration at a flow rate of 50 μL/min for 60 s in a multi-cycle kinetic assay. A 1:1 binding model was used, and the Fit Local mode was selected to determine the association rate constant (ka), dissociation rate constant (kd), and equilibrium dissociation constant (KD).

[5] = target: T4, monkey CD73 protein (Novoprotein, Cat. No. CI21) (monkey); experiment: as above
T4 construct: Bought protein
Procedure: as §1, §2

[6] = target: T1, CD73 on the surface of Calu6 cells; experiment: flow cytometry on Calu6 cells, antibody at 1 ug/mL, kept at 4 C, PE anti-human IgG Fc detection
Procedure: The endocytosis efficiency of monoclonal antibodies 900698 and 900725 was compared through an endocytosis assay, with the procedures as follows: Anti-CD73 antigen-binding proteins such as the CD73 positive control antibody BMS-986179, 900698, and 900725 were diluted to 1 μg/mL with a PBS solution, with 2 replicate wells set up for each concentration. Calu6 cells in the logarithmic growth phase were taken and prepared into a cell suspension at 2× 10⁵ cells/mL. The cell suspension was then added at 100 μL (about 20000 cells) per well to a 96-well U-bottom plate and centrifuged at 300 g for 3 min, and then the supernatant was discarded. Then, the diluted antigen-binding proteins were each added at 100 μL/well to resuspend the cells, and the mixture was mixed uniformly and incubated at 4° C. for 30 min. After the incubation was completed, the mixture was centrifuged at 300 g for 3 min, and then the supernatant was discarded. The cells were then resuspended in 1% BSA, with half incubated at 37° C. and the other half at 4° C., for an incubation time of 5 h. After the incubation was completed, the wells corresponding to the specified time were removed. The cells in these wells were centrifuged at 300 g for 3 min, and then the supernatant was discarded. PE anti-hulgG Fc (1:200) was then added at 50 μL/well, and the mixture was mixed uniformly and allowed to react at 4° C. for 30 min. After the incubation was completed, the cells were washed twice and centrifuged at 300 g for 3 min, and the fluorescence intensity was detected by flow cytometry. The assay results for the endocytosis of CD73 on the cell surface induced by the anti-CD73 antigen-binding proteins are shown in Table 5 below and FIG. 9. […] 34%. In FIG. 9, the results for BMS-986179, 900725, and 900698 are represented as 1-3, respectively, and NC indicates the result for the condition that only a 1% BSA solution was added without any antibody or antibody-drug conjugate.

[7] = target: T3, human CD73 expressed on …; experiment: flow cytometry (PE-MFI, PE-goat anti-human-Fc) on CHOK1-huCD73-3F4 cells expressing human CD73; four-parameter fit table under the curves, unit from the concentration axis
Procedure: The binding activity of the antibody-drug conjugate 1 and the antibody-drug conjugate 2 prepared in Example 1 and the 900698 naked antibody to cells expressing human CD73 (CHOK1-huCD73-3F4, Huabo Biopharm) was assayed.
All antigen-binding proteins were diluted to 30 μg/mL with a solution of 1% BSA in PBS (1% BSA/PBS), followed by a 3-fold dilution across 10 gradients. The diluted proteins were each added at 20 μL per well to a 96-well U-bottom plate, with a negative control (adding only 1% BSA/PBS) set up simultaneously. A suspension of cells expressing human CD73 (CHOK1-huCD73-3F4, Huabo Biopharm) in the logarithmic growth phase was taken and centrifuged (1000 rpm×5 min), and then the culture medium was discarded. The cells were resuspended in 1% BSA/PBS until the viable cell density was 1×10⁶ cells/mL, then added at 20 μL (2×10⁴ cells) per well to the 96-well U-bottom plate containing the anti-CD73 antigen-binding proteins, and incubated at room temperature for reaction for 30 min. The reacted cells in the 96-well U-bottom plate were resuspended in 1% BSA/PBS and centrifuged (300 g×3 min), and then the supernatant was discarded. This washing process was performed once. Then, a 1:200 dilution of PE-goat anti-human-Fc (Jackson ImmunoResearch, #109-115-098) was added, and the cells were incubated in the dark at room temperature for reaction for 15 min. The reacted cells in the 96-well U-bottom plate were further resuspended in 1% BSA/PBS and centrifuged (300 g×3 min), and then the supernatant was discarded. This washing process was performed 3 times. Finally, the cells were resuspended in 100 μL of 1% BSA/PBS per well, and the fluorescence intensity in the PE channel was detected using a flow cytometer (BD, #Canto II).

Binder	Endocytosis efficiency (%) [1] [%]	Endocytosis efficiency (%) [2] [%]	fluorescence intensity of surface antibody after 5 h at 37° C. (flow cytometry, Calu6 cells) [2]	IC50, inhibition of the enzymatic activity of recombinant CD73 (AMP/ATP, CellTiter-Glo signal) [3] [µg/mL]	Kd [4] [nM]	koff [4] [s⁻¹]	kon [4] [M⁻¹ s⁻¹]	Kd [5] [nM]	koff [5] [s⁻¹]	kon [5] [M⁻¹ s⁻¹]	fluorescence intensity at 4° C. [6]	EC50 [7] [µg/mL]
B1	95.4	96.3	359	0.352	0.711	0.000104	147000	0.121	1.8e-05	148000	8940	1.01
B2	95.8	–	–	0.553	0.354	0.000228	643000	0.252	0.000114	454000	–	0.67
B3	95.6	–	–	0.587	0.339	0.000129	381000	0.0349	1.92e-06	55000	–	0.659
B4	–	44.2	14400	–	–	–	–	–	–	–	25700	–
B5	–	37.5	8710	–	–	–	–	–	–	–	13900	–
